Experimental data as given in the supplement of paper PMC10567573.

B1: CDC25A (parent)
chain: QLIDPDENKENEAFEFKKPVRPVS
B2: SPDEF (parent)
chain: YPEDSSWAAKAPGASSREEPPEEP

Variants of: B1
Assay: protein stability index of a GFP-peptide fusion (GPS, HEK-293T) (PSI 1-6); higher = more stable
Settings: c terminus: a fixed tail appended
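Further: lentivirally expressed fusions sorted by FACS into six bins by GFP to DsRed ratio, PSI derived from sequencing read proportions per bin multiplied by bin number.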

Protein stability index of substitutions, site by site:
D6: S 3.74; R 3.58; L 3.23; I 4.22; C 4.51; A 3.75; E 3.88; W 3.59; V 3.83; M 4.14; H 3.94; Y 4.02; K 3.87; F 3.88; N 4.4; Q 4.6; G 3.64; T 3.87; P 4.53
I3: A 4.23; D 4.64; C 3.92; R 4.75; K 3.86; L 3.15; G 4.58; F 3.91; N 3.6; M 3.75; E 4.74; Q 3.95; H 4.59; T 4.12; Y 3.74; V 4.05; P 4.3
P5: G 3.9; Y 2.85; T 3.61; D 3.92; Q 3.87; K 3.95; V 3.74; N 4.06; F 2.88; S 3.25; M 3.88; A 3.99; R 3.66; H 3.61; W 3.51; I 3.07; C 4.12
D4: C 3.37; Y 3.84; W 3.45; K 3.87; F 4.09; A 3.67; G 3.56; R 3.3; M 3.94; E 3.99; T 3.65; N 3.2; S 3.58; L 3.91; H 4.23; V 3.44; I 3.83
Q1: C 3.81; P 4.06; R 3.44; F 4.05; V 3.6; M 3.97; E 4.56; Y 2.32; L 2.93; D 2.88; S 4.43; T 3.58; A 4.36; H 4.72; W 2.44; N 3.83; I 3.39
L2: K 4.29; N 4.58; Q 4.41; F 3.35; V 3.29; D 4.51; T 4.31; H 4.54; E 5.02; P 5.03; M 3.72; C 4.64; Y 4.17; A 4.69; I 2.73; S 4.16; W 3.43
E7: W 3.3; H 3.94; F 3.63; L 3.33; S 3.37; G 3.02; M 3.95; P 4.68; D 3.97; V 4.11; Y 3.45; A 4.25; N 3.42; Q 3.58; C 4; K 4.59; T 4.15; R 3.92; I 4.06

Variants of: B2
Assay: as above
Settings: c terminus: a fixed tail appended

Protein stability index of substitutions, site by site:
E22: K 3.88; A 4.38; Y 3.78; S 2.71; F 3.43; P 3.06; L 3.92; V 4.23; T 4.31; D 3.4; G 2.79; C 3.49; H 4.06
K10: H 3.26; N 4.19; T 3.36; F 2.79; A 2.79; Y 1.79; C 2.56; S 3.69; I 3.65; Q 3.11
R17: V 4.3; L 3.62; Q 4.06; M 4.22; N 4.14; S 4; T 4.06; C 3.96; I 4.85; P 3.85; F 4.27; W 4.23; A 3.11; H 4.67
P20: K 3.89; N 3.62; E 4.2; Q 3.46; T 3.8; R 2.98; G 4.43; I 3.82; L 3.11; V 4.26
A14: H 3.77; M 3.15; P 3.94; D 4.37; E 3.88; T 4.03; Q 4.08; Y 3.89; R 4.16; I 4.56; W 3.31; S 4.95
P21: G 4.04; K 3.29; E 4.26; N 4.12; L 4.04; T 3.64; H 4.13; W 3.66; R 4.25; A 3.63; F 3.76; Y 4.3; V 3.91
E18: H 3.86; M 3.77; I 4; W 3.3; Y 3.46; V 4.17; Q 3.37; R 4.32; C 2.82; F 3.05; N 3.43; S 4.18; D 4.86; T 3.24
A8: P 5.38; L 4.72; D 5.61; I 3.72; R 3.28; Y 3.17; C 4.09; F 3.33; H 2.87; N 4.45; Q 4.34
S15: Y 3.1; E 4.14; G 3.53; R 3.96; D 4.61; Q 3.47; P 4.36; V 2.7; K 3.23; F 2.86; M 3.77; T 3.97; N 3.9; H 4.72; L 3.58; I 4.11
P12: L 3.33; C 3.31; A 4.12; F 3.59; I 3.62; D 3.97; T 4.58; Q 4.18; N 3.89; M 3.68; R 3.76; H 4.11; S 4.16
S16: M 4.67; P 3.72; Y 3.73; V 3.78; W 3.71; A 3.72; N 3.53; F 4.2; K 4.51; I 3.86; C 3.83; L 4.36; T 2.85; H 3.92; Q 2.88; D 4.23
E19: S 4.97; H 3.12; K 3.91; M 4.07; T 4.49; V 4.48; C 3.58; N 4.32; D 3.37; Q 3.69; F 3.06; W 3.53
G13: A 3.64; P 3.94; L 4.09; E 4.05; F 3.87; N 4.22; T 3.91; D 3.36; Q 4.07; Y 3.49
A11: P 4.6; W 3.56; Y 3.75; K 3.9; I 3.51; N 4.59; R 4.78; G 3.68; H 4.13; L 3.76; F 3.71; E 3.99; S 4.01; M 2.63; D 4.51
A9: W 3.11; I 3.23; H 3.4; V 3.82; M 4.11; T 4.32; D 5.61; Q 4.04; P 4.23; K 3.97; Y 2.88; E 5.42; R 4.36
W7: Y 5.92
P24: E 3.48; Y 4.17; C 4.4; N 4.54; D 4.17; H 3.42; R 3.86
E23: A 4.06; D 4.44; R 3.6; N 3.58; G 3.9; S 3.1; C 4.3; Y 3.65; F 3.89; L 3.45; K 2.69
